Source: patent US20240294611A1
Several values for one entry are separate records, joined by “and”; a condition that tells them apart may be missing. Equal values may be shown once.

Tests used:
[1] = molecular target: SARS-CoV-2 HexaPro spike (SARS-CoV-2) (UniProt P0DTC2)
[2] = molecular target: SARS-CoV spike without stabilizing modifications on pseudovirus (SARS-CoV) (UniProt P59594); test: cell-based or functional assay
[3] = molecular target: wild-type SARS-CoV-2 spike without stabilizing modifications (on cells or pseudovirus) (SARS-CoV-2) (UniProt P0DTC2); test: cell-based or functional assay

Substance	Kd [1]	Pseudovirus IC50 [2] [nM]	Pseudovirus IC50 [3] [nM]
antibody S309 (Pinto et al., 2020)	18 nM and 24 nM	0.5	1
isotype control antibody with irrelevant binding	–	> 5000	> 5000
